For one molecule, ECL signal results are on record in US20120058906A1 (published 2012).

What all share (experiment): ECL (MSD Multi-Spot) binding assay, antigen spotted on plate; Fab 154 nM; blank spot 447;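 further: blank spot per well as comparator with Hit at signal to blank ratio of 4 or more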
In assay [1] the target is T1, rHuman CD44/Fc Chimera, CF (R&D Systems Cat#3660-CD) (human, UniProt P16070 21-220).
T1 construct: Bought Fc chimera; Fc part of the bought chimera not given

The target of assay [2] is T2, rHuman Erythropoietin R/Fc Chimera, CF (R&D Systems Cat#963-ER) (human, UniProt P19235 25-250).
T2 construct: Bought Fc chimera; also called EPO R/Fc; Epo R; Fc part of the bought chimera not given
T2 sequence: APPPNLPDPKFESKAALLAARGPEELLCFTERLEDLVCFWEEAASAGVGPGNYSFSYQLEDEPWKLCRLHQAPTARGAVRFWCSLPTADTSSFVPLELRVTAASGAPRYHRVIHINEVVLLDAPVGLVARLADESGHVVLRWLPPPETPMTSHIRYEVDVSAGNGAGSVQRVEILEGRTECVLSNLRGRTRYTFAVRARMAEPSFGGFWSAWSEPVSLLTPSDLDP

Assay [3] has as its target T3, rHuman Notch-1/Fc Chimera, CF (R&D Systems Cat#3647-TK) (human, UniProt P46531 19-526).
T3 construct: Bought Fc chimera; Fc part of the bought chimera not given

B1: Fab VH5-51_IGHD5-18*01>3_IGHJ4*01 & V3-4_IGLJ1*01 (Fab, V domains shown)
VH: EVQLVQSGAEVKKPGESLKISCKGSGYSFTSYWIGWVRQMPGKGLEWMGIIYPGDSDTRYSPSFQGQVTISADKSISTAYLQWSSLKASDTAMYYCARRGYSYGYDYFDYWGQGTLVTVSS
VL: QTVVTQEPSFSVSPGGTVTLTCGLSSGSVSTSYYPSWYQQTPGQAPRTLIYSTNTRSSGVPDRFSGSILGNKAALTITGAQADDESDYYCVLYMGSGISYVFGTGTKVTVL
notes: Tested as a Fab made in E. coli; also called IGHV5-51*03
Consider B1, for which the ECL signal was found to be 960 in assay [1], 1200 in assay [2] and 929 in assay [3].
